Reference: US20250289873A1 (BROADWING BIO, published 2025)
Residue numbers refer to the chain shown, from its start.

T1: human CFHL3-His (ATX-P-58) (human, UniProt Q02985 19-330)
T1 construct: also called human CFHR3 protein; CFHR3; not shown: C-terminal His tag (and linker)
T1 sequence (looked up): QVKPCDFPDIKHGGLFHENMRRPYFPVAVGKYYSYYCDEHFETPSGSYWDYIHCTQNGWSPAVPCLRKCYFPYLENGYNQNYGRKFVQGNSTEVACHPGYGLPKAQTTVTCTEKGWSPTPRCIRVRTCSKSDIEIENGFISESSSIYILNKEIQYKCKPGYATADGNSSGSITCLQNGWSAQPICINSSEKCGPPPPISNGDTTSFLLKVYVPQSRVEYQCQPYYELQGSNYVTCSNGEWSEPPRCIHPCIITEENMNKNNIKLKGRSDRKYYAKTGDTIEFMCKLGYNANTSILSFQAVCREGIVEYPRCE

T2: Human CFHL1-Y402H-His (ATX-P-421) (human)
T2 construct: also called human CFHL-1 (Y402H) protein
T2 chain: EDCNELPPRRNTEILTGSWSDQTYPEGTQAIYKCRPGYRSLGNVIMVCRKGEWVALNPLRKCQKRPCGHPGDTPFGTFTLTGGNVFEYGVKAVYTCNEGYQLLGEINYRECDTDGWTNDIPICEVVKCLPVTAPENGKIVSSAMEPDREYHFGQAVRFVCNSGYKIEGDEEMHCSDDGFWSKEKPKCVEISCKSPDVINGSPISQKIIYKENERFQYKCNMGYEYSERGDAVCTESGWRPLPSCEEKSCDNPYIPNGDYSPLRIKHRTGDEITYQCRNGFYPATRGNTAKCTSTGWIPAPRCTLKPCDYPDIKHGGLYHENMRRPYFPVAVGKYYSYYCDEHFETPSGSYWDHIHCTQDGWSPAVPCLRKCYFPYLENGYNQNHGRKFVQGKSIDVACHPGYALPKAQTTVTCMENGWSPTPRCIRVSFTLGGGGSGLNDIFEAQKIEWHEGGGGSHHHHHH

B1: ATX-P-562 (antibody, human IgG1, kappa, N297A, V domains shown)
VH: QVQLQQSGPGLVKSSQTLSLTCAISGDTVSSNSAAWNWIRQSPSRGLEWLGRTFYRSRWSAAYAASVSSRITINPDTSKNQFSLQLTSVTPADTAVYYCAREGVGSSTGFDYWGQGTLVTVSS
VL: DIQMTQSPSSVSASIGDRVTITCRASKGISIWLAWYQQKPGKAPKVLISAASSLQSGAPSRFSGSGSGTDFTLTISSLQPEDFATYYCQQANSFPPTFGQGTKVEIKR
B2: ATX-P-563 (antibody, human IgG1, kappa, N297A, V domains shown)
VH: QVQLQESGPGLMKPSETLSLTCTVSGGSISSHYWSWIRQPPGKGLEWIGYIFYSGNINYNPSLKSRVTISVDTSKNQFSLKLRSVTTADTAVYYCARDRGGSYSYHFDCWGQGTLVTVSS
VL: DIQMTQSPSSVSASVGDRVTITCRASQSFAGWLAWYQQKPGKAPKLLIYAASTLQSGVPSRFSGSGSGTDFTLTISSLQPEDFATYYCQQANSFPLTFGGGTKVEIKR
B3: ATX-P-564 (antibody, human IgG1, kappa, N297A, V domains shown)
VH: EVQLVESGGGLVKPGGSLRLSCAASGFTFSSYTMNWVRQAPGKGLEWVSSISSSSSYTYYADSVRGRFTISRDNAKNSLYLQMSSLRAEDTAVYYCARSASIAAGMDVWGKGTTVTVSS
VL: DIVMTQSPLSLPVTPGEPASISCRSSQSLLHSTGYNFLDWYLQKPGLSPQLLIYLASNRASGVPDRFSGSGSGTDFTLKISRVEAEDVGVYYCMQALQTPYTFGQGTKLEIKR
B4: ATX-P-565 (antibody, human IgG1, kappa, N297A, V domains shown)
VH: QVQLVESGGGVVQPGRSLRLSCAASGFTFNTYGIHWVRQAPGKGLEWVAVIWHDGSSKNYVDSVTGRFTISRDNSKNTVYLQMNSLRAEDTAVYYCARRGNWNYGFYYYYMDVWGKGTTVTVSS
VL: B3 VL with S28R, T33S, F37Y, L47Q, A56G, N58S, A96G, Y101P, L109V
B5: ATX-P-566 (antibody, human IgG1, kappa, N297A, V domains shown)
VH: QVQLQQSGPGLVKPSQTLSLTCAISGDSVSSNSAAWNWIRQSPSRGLEWLGRTYYRSKWFNNYSVSVKSRIAINPDTSKNQFSLQLNSVTPEDTAVYYCARDLGELLDWYFDLWGRGTLVTVSA
VL: EIVLTQSPGTLSLSPGDRATLSCRASQSVRNSYVAWYQQKPGQAPRLLIYGASSRATGIPDRFSGSGSGTDFSLTIGRLEPEDFVVYYCQQYGNSPLTFGGGTKVEIKR
B6: ATX-P-568 (antibody, human IgG1, kappa, N297A, V domains shown)
VH: EVQLVESGGGLVQPGGSLRLSCAASGFPFSSYVMSWVRQAPGKGLEWVSVISVSGGSTFYADSVRGRFTISRDNSKNTLYLQVYSLRAEDTAVYYCAKDGLAVAGFDHWGQGTLVTVSS
VL: DIQMTQSPSTLSASVGDRVTITCRASQSISTWLAWYQQKPGKAPKLLIHKASGLESGVPSRFSGSGSGTEFTLTISSLQPDDFATYYCQQYNSFSLIFGGGTRVEIKR
B7: ATX-P-573 (antibody, human IgG1, kappa, N297A, V domains shown)
VH: QVQLQQSGPGLVKPSQTLSLTCAISGDSVSSNSAAWNWIRQSPSRGLEWLGRTYYRSKLYSDYAVSVKSRITINPDTSRNQFSLQLNSVTPEDTAVYYCAREGGYTYGYDYWGQGTLVTVSS
VL: B1 VL with I15V, K27Q, I31S, S49Y, A58V, Q100P, E105D
B8: ATX-P-574 (antibody, human IgG1, kappa, N297A, V domains shown)
VH: EVQLVESGGGLVQRGGSLRLSCVASGFTFSSYAMSWVRQAPGKGLEWVSVISGSGGTTYYADSVKGRFTISRDDSKKTLYLQMNSLRAEDTAVYYCAKRGDYGDYMDVWGKGTTVTVSS
VL: B1 VL with I15V, K27Q, S30T, I31T, V46L, S49F, A50G, Q55E, A58V, P96W
B9: ATX-P-576 (antibody, human IgG1, kappa, N297A, V domains shown)
VH: EVQLVESGGGLVQPGRSLRLSCTASGFTFDDYEMHWVRQAPGKGLEWVSDISRNSGRIGYADSVKGRFTISRDNAKNSLYLQMNSLRAEDTALYYCAKDIWGSGYFDYWGQGILVTVSS
VL: DIQMTQSPSSVSASVGDRVTITCRTSQGIRNWLAWYQQKPGKAPKLLIYAASSLQTGGPSRFSGSGSGTDFTLTISSLQPEDFATYYCQQANSFPYTFGQGTKLEIKR
B10: ATX-P-577 (antibody, human IgG1, kappa, N297A, V domains shown)
VH: QVQLQESGPGLVKPSGTLSLTCAVSGGSISSSNWWTWVRQPPGKGLEWIGETYHDGSTNYNPSLKSRVTISVDKSKNQFSLKLSSVTAADTAVYYCLEFYFDYWGQGTLVTVSS
VL: DIQMTQSPSSLSASVGDRVTITCRASQDIRNDLGWYQQKPGKVPKRLIYAASSLQSGVPSRFSGSGSGTEFTLTISSLQPEDFASYYCLQYNNYPFTLGPGTKVDIKR
B11: ATX-P-578 (antibody, human IgG1, kappa, N297A, V domains shown)
VH: EVQLVESGGGLVQPGGSLRLSCAASGFTFSRYSMNWVRQAPGKGLEWVSYISSSSSTIFHADSVKGRFTISRDNAKNSLYLQMNSLRDEDTAVYYCARGNWNYYYMDVWGKGTTVTVSS
VL: DIQMTQSPSTLSASVGDRVTISCRASQSVNSWLAWYQQKPGKAPKLLIYKASNLEGGVPSSFSGSGSGTEFTLTISSLQPDDFATYYCQQYDTSWTFGQGTKVEIKR
B12: ATX-P-579 (antibody, human IgG1, kappa, N297A, V domains shown)
VH: QVQLQESGPGLVKPSGTLSLTCAVSGASISTSNWWTWVRQPPGKGLEWIGEIYHDGSTNYSPSLQSRVTISVDKSKNQFSLTLTSVTAADTAIYYCGDFYIDVWGNGTTVTVSS
VL: B10 VL with D28G, N31K, V43A, A50T, S53T, S85T, L98F
B13: ATX-P-580 (antibody, human IgG1, kappa, N297A, V domains shown)
VH: B10 VH with S31T, N33D, T52I, D55S, L97A, E98D, F99W, Y103L, Q106R
VL: B10 VL with D28G, V43A, T74A, S85T, Q90H, Y91F, N93S, L98F
B14: ATX-P-583 (antibody, human IgG1, kappa, N297A, V domains shown)
VH: QVQLVQSGAEVKKPGASVKVSCKASGYTFTTYGISWVRQAPGQGLEWMGWISAYSGNTHYAQSLQDRVTMTTDTSTSTAYMEVRSLRSDDTAVYYCAKDEGYCSSTGCLNLFDPWGQGTLVTVSS
VL: DIQMTQSPSSLSASVGDRVTITCRASQNIGSYLNWYQQKPGNAPKLLIYATSTLQSGVPSRFSGSGSGTDFTLIISSLHPEDFTVYYCQQSFIIPFTFGPGTKVDIKR
B15: ATX-P-587 (antibody, human IgG1, kappa, N297A, V domains shown)
VH: QVQLQQSGPGLVKPSQTLSLTCAISGDSVSSNSAAWNWIRQSPSRGLEWLGKTYYRSKWYNYYALSVKSRITINPDTSKNQFSLHLNSVTPEDTAVYYCARDGDYYLPSPFDLWGHGTMVTVSS
VL: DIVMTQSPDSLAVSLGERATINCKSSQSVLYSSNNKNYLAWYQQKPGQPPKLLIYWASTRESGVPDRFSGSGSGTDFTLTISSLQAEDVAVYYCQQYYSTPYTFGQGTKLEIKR
B16: ATX-P-588 (antibody, human IgG1, kappa, N297A, V domains shown)
VH: EVQLVESGGGLVQPGRSLRLSCAASGFTFEDYAMHWVRQAPGKGLEWVSGISWNSGSIGYADSVKGRFTISRDNAKKSLYLQMNSLRAEDTALYYCTKDRDDGYNYAGVFDYWGQGTLVTVSS
VL: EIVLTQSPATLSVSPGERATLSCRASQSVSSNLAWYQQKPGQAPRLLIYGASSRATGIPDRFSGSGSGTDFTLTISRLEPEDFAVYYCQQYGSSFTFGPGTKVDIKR

Columns and labels:
[1] = target: T1, human CFHL3-His (ATX-P-58); assay: Carterra LSA biosensor, mAb printed on chip, human CFHL3-His at 550 nM
Description: (§1) Experiments were also conducted to determine the reactivity of the CFHR4 antibodies with the human CFHR3 protein (FIG. 9). The binding experiments were performed on Carterra LSA with a running buffer of PBS pH 7.40, 1% BSA, 0.05% Tween20. Antibodies were covalently printed on an HC30M chip. Chip was activated with 33 mM s-NHS and 133 mM EDC in 100 mM MES pH 5.5 for 7 minutes. Antibodies at 10 mg/ml in acetic acid buffer pH 4.5 were used for printing for 10 min. The printed chip was then quenched with 1 M ethanolamine pH 8.5 for 7 min. For the reactivity assay, ATX-P-58, human CFHL3-His, at 550 nM was tested with 5 min association followed by 15 min dissociation. Results were processed and analyzed in Carterra LSA Kinetics Software. The data was referenced with the interstitial reference spots and double-referenced to a buffer cycle, and then the responses (nm) after association were reported. Isotype control was used to determine the cutoff response for positive binding.

[2] = target: T2, Human CFHL1-Y402H-His (ATX-P-421); assay: Carterra LSA biosensor, mAb printed on chip, human CFHL1-Y402H-His at 380 nM
Description: as §1, with “CFHL-1 (Y402H)” for “CFHR3”, “10).” for “9).”, “ATX-P-421,” for “ATX-P-58,”, “CFHL1-Y402H-His,” for “CFHL3-His,”, “380” for “550”

| Binder | binding result [1] | binding result [2] |
| --- | --- | --- |
| B1 | binds | binds |
| B2 | binds | binds |
| B3 | binds | binds |
| B4 | binds | binds |
| B5 | binds | binds |
| B6 | binds | binds |
| B7 | binds | binds |
| B8 | binds | binds |
| B9 | binds | binds |
| B10 | binds | binds |
| B11 | binds | binds |
| B12 | binds | binds |
| B13 | binds | binds |
| B14 | binds | binds |
| B15 | binds | binds |
| B16 | binds | binds |
